Where two headings read alike, the source gives them in different places.
T1: human CD45 on cells (PBMC, whole blood cells, macrophages, leukaemia and lymphoma cell lines) (human, UniProt P08575 26-1306)
T1 sequence: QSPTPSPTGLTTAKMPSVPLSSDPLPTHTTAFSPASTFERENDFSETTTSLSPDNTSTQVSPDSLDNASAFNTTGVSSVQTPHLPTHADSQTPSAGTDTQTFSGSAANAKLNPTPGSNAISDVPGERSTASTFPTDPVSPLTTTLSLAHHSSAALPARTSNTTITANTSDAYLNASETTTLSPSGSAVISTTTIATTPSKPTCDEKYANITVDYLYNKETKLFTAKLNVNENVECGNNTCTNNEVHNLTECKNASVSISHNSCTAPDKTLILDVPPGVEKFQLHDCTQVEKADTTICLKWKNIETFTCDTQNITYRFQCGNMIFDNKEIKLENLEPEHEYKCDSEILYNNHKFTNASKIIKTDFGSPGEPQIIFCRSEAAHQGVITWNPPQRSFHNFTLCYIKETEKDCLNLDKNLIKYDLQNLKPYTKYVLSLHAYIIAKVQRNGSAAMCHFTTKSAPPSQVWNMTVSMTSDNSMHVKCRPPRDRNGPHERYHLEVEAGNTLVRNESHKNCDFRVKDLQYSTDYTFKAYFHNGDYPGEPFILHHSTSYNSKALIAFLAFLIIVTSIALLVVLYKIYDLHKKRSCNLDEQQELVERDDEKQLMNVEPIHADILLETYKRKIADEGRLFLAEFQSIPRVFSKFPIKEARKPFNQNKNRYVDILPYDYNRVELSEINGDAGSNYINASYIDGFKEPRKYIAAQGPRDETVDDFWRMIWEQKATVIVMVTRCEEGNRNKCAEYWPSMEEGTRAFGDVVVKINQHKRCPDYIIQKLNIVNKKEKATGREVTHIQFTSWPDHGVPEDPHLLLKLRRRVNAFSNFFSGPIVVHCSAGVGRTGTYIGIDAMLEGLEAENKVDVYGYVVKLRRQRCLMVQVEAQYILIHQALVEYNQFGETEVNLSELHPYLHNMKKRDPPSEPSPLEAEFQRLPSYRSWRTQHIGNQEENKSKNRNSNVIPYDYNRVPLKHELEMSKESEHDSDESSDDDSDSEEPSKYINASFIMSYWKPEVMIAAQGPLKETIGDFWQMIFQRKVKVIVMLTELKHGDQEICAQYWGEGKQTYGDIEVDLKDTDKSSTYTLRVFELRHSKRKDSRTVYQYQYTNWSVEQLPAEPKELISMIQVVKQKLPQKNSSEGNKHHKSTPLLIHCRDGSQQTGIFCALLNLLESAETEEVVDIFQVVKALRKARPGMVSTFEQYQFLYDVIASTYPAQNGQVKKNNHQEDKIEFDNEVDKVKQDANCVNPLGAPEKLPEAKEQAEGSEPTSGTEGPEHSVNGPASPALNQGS

T2: CD45 D1-D4 (Homo sapiens, UniProt P08575)
T2 construct: extracellular domain of CD45 (UniProtKB—P08575, residue positions 225-573); TEV cleavage site (C); 10-His tag (C); made in house; host or cells: HEK293
T2 sequence (P08575 225-573): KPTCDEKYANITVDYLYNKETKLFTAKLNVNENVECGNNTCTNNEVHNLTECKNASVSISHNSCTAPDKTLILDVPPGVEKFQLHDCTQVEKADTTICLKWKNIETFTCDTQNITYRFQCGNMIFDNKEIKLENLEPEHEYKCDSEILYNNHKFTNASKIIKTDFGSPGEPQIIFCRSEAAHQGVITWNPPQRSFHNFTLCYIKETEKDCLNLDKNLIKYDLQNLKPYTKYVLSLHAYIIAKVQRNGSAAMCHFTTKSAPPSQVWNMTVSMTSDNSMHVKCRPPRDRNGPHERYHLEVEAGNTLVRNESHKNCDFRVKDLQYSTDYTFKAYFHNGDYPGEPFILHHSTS

B1: 4133-6294 IgG4P FALA Knob-in-Hole (bispecific antibody)
heavy 1: QEQLVESGGGLVQPEGSLTLTCTASGFSFSGNYYMCWVRQAPGKGLEWIGCLYTGSSGSTYYASWAKGRFTISKTSSTTVTLQMTSLTAADTATYFCARDLGYEIDGYGGLWGQGTLVTVSSASTKGPSVFPLAPCSRSTSESTAALGCLVKDYFPEPVTVSWNSGALTSGVHTFPAVLQSSGLYSLSSVVTVPSSSLGTKTYTCNVDHKPSNTKVDKRVESKYGPPCPPCPSAPEAAGGPSVFLFPPKPKDTLMISRTPEVTCVVVDVSQEDPEVQFNWYVDGVEVHNAKTKPREEQFNSTYRVVSVLTVLHQDWLNGKEYKCKVSNKGLPSSIEKTISKAKTGQPREPQVYTLPPSQEEMTKNQVSLWCLVKGFYPSDIAVEWESNGQPENNYKTTPPVLDSDGSFFLYSRLTVDKSRWQEGNVFSCSVMHEALHNHYTQKSLSLSLGK
heavy 2: EVQLVESGAELARPGASVKMSCKASGYTFTSYTMHWVKQRPGQGLEWIGYINPSSGYTEYNQKFKDKTTLTADKSSSTAYLQLSSLTSEDSAVYYCARVGDGFYPSWLAYWGQGTLVTVSSASTKGPSVFPLAPCSRSTSESTAALGCLVKDYFPEPVTVSWNSGALTSGVHTFPAVLQSSGLYSLSSVVTVPSSSLGTKTYTCNVDHKPSNTKVDKRVESKYGPPCPPCPAPEAAGGPSVFLFPPKPKDTLMISRTPEVTCVVVDVSQEDPEVQFNWYVDGVEVHNAKTKPREEQFNSTYRVVSVLTVLHQDWLNGKEYKCKVSNKGLPSSIEKTISKAKGQPREPQVYTLPPSQEEMTKNQVSLSCAVKGFYPSDIAVEWESNGQPENNYKTTPPVLDSDGSFFLVSRLTVDKSRWQEGNVFSCSVMHEALHNHYTQKSLSLSLGK
light 1: AQVLTQTPSPVSAVVGGTVSISCQASQSVYNNNNLSWYQQKPGQPPKLLIYDASKLASGVPSRFKGSGSGTQFTLTISGVQCDDAATYYCLGGYYSSGWYFAFGGGTKVVVKRTVAAPSVFIFPPSDEQLKSGTASVVCLLNNFYPREAKVQWKVDNALQSGNSQESVTEQDSKDSTYSLSSTLTLSKADYEKHKVYACEVTHQGLSSPVTKSFNRGEC
light 2: DIQMTQSPKFLLVSAGDRVTITCKASQSVRNDVAWYQQKPGQSPKLLIFYASKRYTGVPDRFTGSGYGTDFTFTISTVQAEDLAVYFCQQDYSSPTTFGGGTKLEIKRTVAAPSVFIFPPSDEQLKSGTASVVCLLNNFYPREAKVQWKVDNALQSGNSQESVTEQDSKDSTYSLSSTLTLSKADYEKHKVYACEVTHQGLSSPVTKSFNRGEC
B2: 6294 Fab: Fab fragment of mouse anti-CD45 antibody 6294 (antibody, V domains shown)
VH: EVQLVESGAELARPGASVKMSCKASGYTFTSYTMHWVKQRPGQGLEWIGYINPSSGYTEYNQKFKDKTTLTADKSSSTAYLQLSSLTSEDSAVYYCARVGDGFYPSWLAYWGQGTLVTVSS
VL: DIQMTQSPKFLLVSAGDRVTITCKASQSVRNDVAWYQQKPGQSPKLLIFYASKRYTGVPDRFTGSGYGTDFTFTISTVQAEDLAVYFCQQDYSSPTTFGGGTKLEIK
B3: 4133 Fab: Fab fragment of rabbit anti-CD45 antibody 4133 (antibody)
heavy: QEQLVESGGGLVQPEGSLTLTCTASGFSFSGNYYMCWVRQAPGKGLEWIGCLYTGSSGSTYYASWAKGRFTISKTSSTTVTLQMTSLTAADTATYFCARDLGYEIDGYGGLWGQGTLVTVSSGQPKAPSVFPLAPCCGDTPSSTVTLGCLVKGYLPEPVTVTWNSGTLTNGVRTFPSVRQSSGLYSLSSVVSVTSSSQPVTCNVAHPATNTKVDKTVAPSTCSKP
light: AQVLTQTPSPVSAVVGGTVSISCQASQSVYNNNNLSWYQQKPGQPPKLLIYDASKLASGVPSRFKGSGSGTQFTLTISGVQCDDAATYYCLGGYYSSGWYFAFGGGTKVVVKRTPVAPTVLIFPPAADQVATGTVTIVCVANKYFPDVTVTWEVDGTTQTTGIENSKTPQNSADCTYNLSSTLTLTSTQYNSHKEYTCKVTQGTTSVVQSFNRGDC

Tests used:
[1] = target: T1, human CD45 on cells (PBMC, whole blood …); assay: cell-based or functional assay
CD45 D1-D4 = target: T2, CD45 D1-D4; assay: Surface plasmon resonance (Biacore) affinity of Fabs; type: binding; settings: 25° C.; for Ka: association constant, CD45 D1-D4 50 nM to 0.05 nM
Procedure: Surface plasmon resonance (SPR) experiments were carried out at 25° C. on a Biacore 3000 system using CM5 sensor chips (GE Healthcare Bio-Sciences AB, Uppsala, Sweden) and HBS-EP running buffer (10 mM HEPES, 150 mM NaCl, EDTA 2 mM and 0.005% (v/v) P20, pH 7.4). 4133 rabbit Fab and 6294 mouse Fab were captured using polyclonal goat F(ab)2 fragment anti-rabbit F(ab)2, (Jackson Labs product code #111-006-047) and polyclonal goat F(ab)2 fragment anti-mouse F(ab)2, (Jackson Labs product code #115-006-072), respectively. Covalent immobilization of the capturing antibody was achieved by standard amine coupling chemistry to a level of 1000-3000 response units (RU).
CD45 D1-D4 was titrated over the captured purified antibody from 50 nM to 0.05 nM. Each assay cycle consisted of first capturing the antibody Fab fragment using a 1-min injection at a flow rate of 10 μl/min, followed by an association phase consisting of a 3-min injection of CD45 D1-D4 at a flow rate of 30 μl/min. The subsequent dissociation phase was monitored for at least 3 min. After each cycle, the capture surface was regenerated at a flow rate of 10 μl/min with a 1-min injection of 40 mM HCl followed by a 30-sec injection of 5 mM NaOH. A blank flow-cell was used for reference subtraction and buffer-blank injections were included to subtract instrument noise and drift. Kinetic parameters were determined using BIAevaluation software (version 4.1.1).

| Molecule | EC50 of reduction of lymphocytes in PBMC, 24 h (UCB Cone-802) [1] [nM] | EC50 of reduction of lymphocytes in PBMC, 24 h (UCB Cone-811) [1] [nM] | Kd (CD45 D1-D4; SPR, read-out: affinity) [nM] | Ka (CD45 D1-D4; captured Fab) [M⁻¹ s⁻¹] | Dissociation rate constant koff (CD45 D1-D4; captured Fab) [s⁻¹] | Kd (CD45 D1-D4; affinity constant, captured Fab, read-out: KD) [nM] |
| --- | --- | --- | --- | --- | --- | --- |
| B1 | 0.09 | 0.17 |  |  |  |  |
| B2 |  |  | 0.085 | 2.6e+06 | 0.00022 |  |
| B3 |  |  | 61 | 570000 | 0.035 | 61 |

— patent US20230374148A1, “BINDING MOLECULES THAT MULTIMERISE CD45” (UCB BIOPHARMA SRL, priority 2020, published 2023)
